Experiments:
[1] = biological target: mouse CD4 on primary murine T-cells (murine) (UniProt P06332); assay: in vivo, DiI-labelled targeted LNPs injected i.v. in BALB/c mice, flow cytometry of blood 24 hours after injection; untargeted LNPs ˜2%
[2] = biological target: mouse CD8 on primary murine T-cells (murine) (UniProt P01731); assay: in vivo, DiI-labelled targeted LNPs injected i.v. in BALB/c mice, flow cytometry of blood 24 hours after injection; untargeted LNPs <2%
[3] = biological target: T1, CD20 on Raji (B-cell) cells (UniProt P11836 1-297, limits assumed); assay: cell-based or functional assay
T1 sequence (looked up): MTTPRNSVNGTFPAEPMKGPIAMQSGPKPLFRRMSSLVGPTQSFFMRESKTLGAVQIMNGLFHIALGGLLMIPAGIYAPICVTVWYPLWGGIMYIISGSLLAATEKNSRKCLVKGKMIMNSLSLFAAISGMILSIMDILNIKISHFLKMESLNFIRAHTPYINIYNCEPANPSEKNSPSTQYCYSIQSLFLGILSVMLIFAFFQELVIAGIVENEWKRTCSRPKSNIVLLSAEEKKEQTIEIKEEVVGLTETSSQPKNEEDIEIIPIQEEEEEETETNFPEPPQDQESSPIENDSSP

[4] = biological target: T2, human CD2 on primary human T-cells (human, UniProt P06729 25-351); assay: DiI-labelled LNP with inserted Fab conjugate on primary human CD3+ T cells, flow cytometry
T2 construct: whole, on cells
T2 sequence (looked up): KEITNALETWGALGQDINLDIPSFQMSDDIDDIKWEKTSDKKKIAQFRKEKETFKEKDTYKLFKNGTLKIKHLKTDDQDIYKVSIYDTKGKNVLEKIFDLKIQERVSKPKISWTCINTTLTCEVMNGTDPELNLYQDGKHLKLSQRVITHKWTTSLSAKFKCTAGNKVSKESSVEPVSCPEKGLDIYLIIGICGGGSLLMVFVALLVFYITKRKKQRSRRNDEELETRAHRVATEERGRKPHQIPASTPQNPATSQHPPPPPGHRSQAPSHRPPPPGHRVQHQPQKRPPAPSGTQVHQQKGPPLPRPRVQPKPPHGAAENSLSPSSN

[5] = biological target: T3, human CD8 on primary human cells (CD8 T-cells, NK-cells) (human, UniProt P01732 22-235); assay: DiI-labelled LNP with inserted Fab conjugate, human whole blood, 24 h, flow cytometry (% DiI+ and DiI MFI) on CD4 and CD8 T-cells
T3 construct: whole, on cells; also called CD8 receptor

[6] = biological target: T4, human CD7 on primary human T-cells (human, UniProt P09564 26-240); assay: DiI-labelled LNP with inserted Nb conjugate on primary human CD3+ T cells, flow cytometry
T4 construct: whole, on cells
T4 sequence (looked up): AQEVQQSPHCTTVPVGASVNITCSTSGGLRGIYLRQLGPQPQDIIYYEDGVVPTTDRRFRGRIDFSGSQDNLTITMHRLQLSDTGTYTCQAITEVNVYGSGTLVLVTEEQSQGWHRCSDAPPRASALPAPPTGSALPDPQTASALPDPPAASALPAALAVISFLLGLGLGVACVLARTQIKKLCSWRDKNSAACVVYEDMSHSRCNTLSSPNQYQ

T3 sequence (P01732 22-235): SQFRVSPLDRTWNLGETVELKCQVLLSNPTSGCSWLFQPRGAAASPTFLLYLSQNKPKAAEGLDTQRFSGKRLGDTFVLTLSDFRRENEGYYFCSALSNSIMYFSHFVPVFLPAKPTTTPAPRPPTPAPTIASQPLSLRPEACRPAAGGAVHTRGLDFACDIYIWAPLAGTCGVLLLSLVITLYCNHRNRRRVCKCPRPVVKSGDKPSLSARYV
Chain of mouse CD8 on primary murine T-cells (murine) (P01731 28-247): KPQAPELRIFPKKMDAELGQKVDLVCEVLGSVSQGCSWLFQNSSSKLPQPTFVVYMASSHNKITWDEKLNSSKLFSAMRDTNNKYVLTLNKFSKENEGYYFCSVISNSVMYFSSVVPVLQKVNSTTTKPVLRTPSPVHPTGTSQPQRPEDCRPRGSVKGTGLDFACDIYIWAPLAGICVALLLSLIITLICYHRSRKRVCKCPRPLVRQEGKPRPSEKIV
Chain of mouse CD4 on primary murine T-cells (murine) (P06332 27-457): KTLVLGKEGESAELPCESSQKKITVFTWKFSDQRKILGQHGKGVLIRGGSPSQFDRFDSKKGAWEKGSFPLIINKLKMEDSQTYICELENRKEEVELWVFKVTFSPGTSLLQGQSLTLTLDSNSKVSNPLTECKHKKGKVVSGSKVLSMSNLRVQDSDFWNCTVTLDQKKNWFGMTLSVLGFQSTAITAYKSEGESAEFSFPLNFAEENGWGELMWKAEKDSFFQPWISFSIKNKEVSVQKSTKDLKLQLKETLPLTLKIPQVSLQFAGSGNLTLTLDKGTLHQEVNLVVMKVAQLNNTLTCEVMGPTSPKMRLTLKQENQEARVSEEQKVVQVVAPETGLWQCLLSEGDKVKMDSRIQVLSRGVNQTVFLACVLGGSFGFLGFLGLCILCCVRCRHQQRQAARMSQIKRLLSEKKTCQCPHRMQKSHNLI

Molecule: anti-mouse CD4 Fab GK1.5, inserted in LNPs
- % of the CD3+CD4+ cell population DiI-positive [1]: 67%

Molecule: anti-mouse CD8 Fab YTS156.7.7, inserted in LNPs
- % of CD3+CD8+ T-cells in the blood with LNP-association (DiI+) [2]: 78%

B1: TTR-023 anti-CD20 (Leu-16) CAR (other)
chain: DYKAKEVQLQQSGAELVKPGASVKMSCKASGYTFTSYNMHWVKQTPGQGLEWIGAIYPGNGDTSYNQKFKGKATLTADKSSSTAYMQLSSLTSEDSADYYCARSNYYGSSYWFFDVWGAGTTVTVSSGGGSGGGSGGGGSSDIVLTQSPAILSASPGEKVTMTCRASSSVNYMDWYQKKPGSSPKPWIYATSNLASGVPARFSGSGSGTSYSLTISRVEAEDAATYYCQQWSFNPPTFGGGTKLEIKGGGGSAAAIEVMYPPPYLDNEKSNGTIIHVKGKHLCPSPLFPGPSKPFWVLVVVGGVLACYSLLVTVAFIIFWVRSKRSRLLHSDYMNMTPRRPGPTRKHYQPYAPPRDFAAYRSRVKFSRSAEPPAYQQGQNQLYNELNLGRREEYDVLDKRRGRDPEMGGKPRRKNPQEGLYNELQKDKMAEAYSEIGMKGERRRGKGHDGLYQGLSTATKDTYDALHMQALPPR
- % of dead Raji cells in co-culture with CAR-T cells (Lipid 9 or DLin-KC3-DMA LNPs), against mCherry transfected T-cells [3]: 4 fold
- % of dead Raji cells in co-culture with CAR-T cells (Lipid 15 or DLin-KC3-DMA LNPs), against mCherry transfected T-cells [3]: 4 fold

B2: anti-CD2 TS2/18.1 Fab NoDS, lipid conjugate (Fab, V domains shown)
VH: EVQLVESGGGLVMPGGSLKLSCAASGFAFSSYDMSWVRQTPEKRLEWVAYISGGGFTYYPDTVKGRFTLSRDNAKNTLYLQMSSLKSEDTAMYYCARQGANWELVYWGQGTLVTVSA
VL: DIVMTQSPATLSVTPGDRVFLSCRASQSISDFLHWYQQKSHESPRLLIKYASQSISGIPSRFSGSGSGSDFTLSINSVEPEDVGVYFCQNGHNFPPTFGGGTKLEIKR
modifications: DSPE-PEG-maleimide coupled to the C-terminal cysteine in the heavy chain (methods of Example 4)
notes: Inserted in LNPs
- binding result [4]: binds

B3: anti-CD2 9.6 Fab NoDS, lipid conjugate (Fab, V domains shown)
VH: QVQLQQPGAELVRPGSSVKLSCKASGYTFTRYWIHWVKQRPIQGLEWIGNIDPSDSETHYNQKFKDKATLTVDKSSGTAYMQLSSLTSEDSAVYYCATEDLYYAMEYWGQGTSVTVSS
VL: NIMMTQSPSSLAVSAGEKVTMTCKSSQSVLYSSNQKNYLAWYQQKPGQSPKLLIYWASTRESGVPDRFTGSGSGTDFTLTISSVQPEDLAVYYCHQYLSSHTFGGGTKLEIKR
modifications: DSPE-PEG-maleimide coupled to the C-terminal cysteine in the heavy chain (methods of Example 4)
notes: Inserted in LNPs
- binding result [4]: binds

B4: mutOKT8-Fab (non-functional mutated OKT8), DSPE-PEG (2k) lipid conjugate (Fab, V domains shown)
VH: QVQLVQSGAEDKKPGASVKVSCKASGFNIKDTYIHWVRQAPGQGLEWMGRIDPANDNTLYASKFQGRVTITADTSSNTAYMELSSLRSEDTAVYYCGRGAGAYVFDHWGQGTTVTVSS
VL: DIVMTQSPSSLSASVGDRVTITCRTSRSISAALAWYQEKPGKAPKLLIYSGSTLQSGVPSRFSGSGSGTDFTLTISSLQPEDFATYYCQQHNENPLTFGQGTKVEIKR
modifications: DSPE-PEG (2k)-maleimide coupled to the C-terminal cysteine in the heavy chain (conjugated using similar methods as hSP34)
notes: Negative control, inserted in mRNA LNPs; also called muOKT8
- binding result [5]: no binding

B5: Anti-CD7 V1 Nb, lipid conjugate (VHH)
VHH: DVQLQESGGGLVQAGGSLRLSCAVSGYPYSSYCMGWFRQAPGKEREGVAAIDSDGRTRYADSVKGRFTISQDNAKNTLYLQMNRMKPEDTAMYYCAARFGPMGCVDLSTLSFGHWGQGTQVTVSI
modifications: conjugated to DSPE-3.4K PEG-maleimide (the cysteine is not named in the example)
notes: The entry includes the C-terminal spacer, cysteine and His tag; Inserted in LNPs; also called αCD7
- binding result [6]: binds

From patent publication US20240002331A1 (TIDAL THERAPEUTICS, published 2024)
